IntAct's records for PubMed 21293379

B1: Histone-lysine N-methyltransferase NSD2 (Homo sapiens), O96028-1 (parent)
chain: MEFSIKQSPLSVQSVVKCIKMKQAPEILGSANGKTPSCEVNRECSVFLSKAQLSSSLQEGVMQKFNGHDALPFIPADKLKDLTSRVFNGEPGAHDAKLRFESQEMKGIGTPPNTTPIKNGSPEIKLKITKTYMNGKPLFESSICGDSAADVSQSEENGQKPENKARRNRKRSIKYDSLLEQGLVEAALVSKISSPSDKKIPAKKESCPNTGRDKDHLLKYNVGDLVWSKVSGYPWWPCMVSADPLLHSYTKLKGQKKSARQYHVQFFGDAPERAWIFEKSLVAFEGEGQFEKLCQESAKQAPTKAEKIKLLKPISGKLRAQWEMGIVQAEEAASMSVEERKAKFTFLYVGDQLHLNPQVAKEAGIAAESLGEMAESSGVSEEAAENPKSVREECIPMKRRRRAKLCSSAETLESHPDIGKSTPQKTAEADPRRGVGSPPGRKKTTVSMPRSRKGDAASQFLVFCQKHRDEVVAEHPDASGEEIEELLRSQWSLLSEKQRARYNTKFALVAPVQAEEDSGNVNGKKRNHTKRIQDPTEDAEAEDTPRKRLRTDKHSLRKRDTITDKTARTSSYKAMEAASSLKSQAATKNLSDACKPLKKRNRASTAASSALGFSKSSSPSASLTENEVSDSPGDEPSESPYESADETQTEVSVSSKKSERGVTAKKEYVCQLCEKPGSLLLCEGPCCGAFHLACLGLSRRPEGRFTCSECASGIHSCFVCKESKTDVKRCVVTQCGKFYHEACVKKYPLTVFESRGFRCPLHSCVSCHASNPSNPRPSKGKMMRCVRCPVAYHSGDACLAAGCSVIASNSIICTAHFTARKGKRHHAHVNVSWCFVCSKGGSLLCCESCPAAFHPDCLNIEMPDGSWFCNDCRAGKKLHFQDIIWVKLGNYRWWPAEVCHPKNVPPNIQKMKHEIGEFPVFFFGSKDYYWTHQARVFPYMEGDRGSRYQGVRGIGRVFKNALQEAEARFREIKLQREARETQESERKPPPYKHIKVNKPYGKVQIYTADISEIPKCNCKPTDENPCGFDSECLNRMLMFECHPQVCPAGEFCQNQCFTKRQYPETKIIKTDGKGWGLVAKRDIRKGEFVNEYVGELIDEEECMARIKHAHENDITHFYMLTIDKDRIIDAGPKGNYSRFMNHSCQPNCETLKWTVNGDTRVGLFAVCDIPAGTELTFNYNLDCLGNEKTVCRCGASNCSGFLGDRPKTSTTLSSEEKGKKTKKKTRRRRAKGEGKRQSEDECFRCGDGGQLVLCDRKFCTKAYHLSCLGLGKRPFGKWECPWHHCDVCGKPSTSFCHLCPNSFCKEHQDGTAFSCTPDGRSYCCEHDLGAASVRSTKTEKPPPEPGKPKGKRRRRRGWRRVTEGK

Variants of: B1
Conditions: with mdc1_human MDC1, Q14676
Sequence of mdc1_human MDC1, Q14676 (Q14676 whole entry): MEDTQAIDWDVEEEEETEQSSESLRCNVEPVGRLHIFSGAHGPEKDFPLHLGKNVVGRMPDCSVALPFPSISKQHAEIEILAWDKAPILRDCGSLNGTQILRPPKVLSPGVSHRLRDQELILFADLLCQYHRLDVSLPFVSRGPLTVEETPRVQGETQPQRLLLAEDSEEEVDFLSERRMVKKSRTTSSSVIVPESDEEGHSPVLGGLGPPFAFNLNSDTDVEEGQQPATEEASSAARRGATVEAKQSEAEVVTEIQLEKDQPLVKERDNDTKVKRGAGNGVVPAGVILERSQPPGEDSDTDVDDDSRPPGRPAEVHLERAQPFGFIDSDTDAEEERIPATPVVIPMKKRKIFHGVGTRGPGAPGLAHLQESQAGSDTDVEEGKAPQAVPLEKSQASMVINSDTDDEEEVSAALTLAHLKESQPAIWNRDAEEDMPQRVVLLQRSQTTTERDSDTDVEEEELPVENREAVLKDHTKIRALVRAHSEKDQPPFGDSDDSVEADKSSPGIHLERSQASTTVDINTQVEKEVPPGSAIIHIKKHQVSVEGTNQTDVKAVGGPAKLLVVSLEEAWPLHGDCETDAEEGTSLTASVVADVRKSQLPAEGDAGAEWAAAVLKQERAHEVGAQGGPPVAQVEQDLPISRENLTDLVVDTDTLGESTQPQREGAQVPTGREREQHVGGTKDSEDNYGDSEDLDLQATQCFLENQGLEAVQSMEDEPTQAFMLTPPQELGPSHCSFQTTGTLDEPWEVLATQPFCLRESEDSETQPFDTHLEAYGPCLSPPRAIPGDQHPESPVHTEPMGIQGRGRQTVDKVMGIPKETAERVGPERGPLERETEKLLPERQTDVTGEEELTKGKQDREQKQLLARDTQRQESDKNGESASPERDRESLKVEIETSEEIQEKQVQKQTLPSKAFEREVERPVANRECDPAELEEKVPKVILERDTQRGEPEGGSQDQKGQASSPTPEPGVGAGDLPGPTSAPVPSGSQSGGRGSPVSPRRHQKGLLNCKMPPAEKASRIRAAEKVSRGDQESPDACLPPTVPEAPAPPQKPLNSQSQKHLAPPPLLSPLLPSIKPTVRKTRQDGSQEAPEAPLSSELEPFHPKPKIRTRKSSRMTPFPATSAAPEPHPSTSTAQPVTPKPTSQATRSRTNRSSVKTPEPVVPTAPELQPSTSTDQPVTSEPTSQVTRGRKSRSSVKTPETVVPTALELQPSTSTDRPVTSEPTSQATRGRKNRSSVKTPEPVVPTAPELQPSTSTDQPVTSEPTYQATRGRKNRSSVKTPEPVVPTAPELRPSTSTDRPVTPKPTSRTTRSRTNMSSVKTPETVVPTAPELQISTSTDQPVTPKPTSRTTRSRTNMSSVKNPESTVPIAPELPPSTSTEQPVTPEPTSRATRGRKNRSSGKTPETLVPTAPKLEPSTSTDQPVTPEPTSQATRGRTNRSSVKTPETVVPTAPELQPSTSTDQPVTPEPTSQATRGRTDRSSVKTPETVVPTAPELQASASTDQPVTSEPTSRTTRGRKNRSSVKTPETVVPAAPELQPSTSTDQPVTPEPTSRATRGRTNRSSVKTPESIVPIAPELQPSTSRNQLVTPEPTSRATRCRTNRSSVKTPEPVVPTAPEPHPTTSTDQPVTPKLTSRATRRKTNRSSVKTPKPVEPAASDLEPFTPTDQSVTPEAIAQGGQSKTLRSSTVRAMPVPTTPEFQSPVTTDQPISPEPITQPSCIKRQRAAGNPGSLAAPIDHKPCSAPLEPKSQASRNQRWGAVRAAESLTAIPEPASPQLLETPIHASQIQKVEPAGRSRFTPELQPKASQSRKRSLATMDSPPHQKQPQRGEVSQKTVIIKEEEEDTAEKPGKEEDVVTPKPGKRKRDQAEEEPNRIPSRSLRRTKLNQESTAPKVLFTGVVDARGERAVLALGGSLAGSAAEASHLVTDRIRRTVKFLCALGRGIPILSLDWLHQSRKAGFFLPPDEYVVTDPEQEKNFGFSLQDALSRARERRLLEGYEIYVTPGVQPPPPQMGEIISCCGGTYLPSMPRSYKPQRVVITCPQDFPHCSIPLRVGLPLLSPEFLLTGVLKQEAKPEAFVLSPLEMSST

effect of a mutation on the interaction | Variant
disrupting interaction | S102A
